# From paper PMC12630593
# B1: NFI-31bp Cy5 probe (dsDNA)
# DNA 1: GGGTCTCTTTGGCAGGCAGCCAACCAGCAAA
# DNA 2: TTTGCTGGTTGGCTGCCTGCCAAAGAGACCC
# Legend:
# Experiment in all cases: EMSA
# NFI-X193 R115W = NFI-X193 R115W (mouse, UniProt P70257 14-193, R115W)
# NFI-X193 R116P = NFI-X193 R116P (mouse, UniProt P70257 14-193, R116P)
# NFI-X193 K113E = NFI-X193 K113E (mouse, UniProt P70257 14-193, K113E)
# NFI-X193 K125E = NFI-X193 K125E (mouse, UniProt P70257 14-193, K125E)
# NFI-X193 R116Q = NFI-X193 R116Q (mouse, UniProt P70257 14-193, R116Q)
# NFI-X193 R121P = NFI-X193 R121P (mouse, UniProt P70257 14-193, R121P)
# NFI-X193 (NFI-X DBD) = NFI-X193 (NFI-X DBD) (mouse, UniProt P70257 14-193)
binder,measurement,setting,value
B1,binding result,NFI-X193 R115W,no binding
same,binding result,NFI-X193 R116P,no binding
same,binding result,NFI-X193 K113E,no binding
same,binding result,NFI-X193 K125E,no binding
same,binding result,NFI-X193 R116Q,no binding
same,binding result,NFI-X193 R121P,binds
same,Kd,NFI-X193 (NFI-X DBD),48.1 ± 0.49 nM
